The source of these data is patent US20200325187A1 (Genentech, published 2020).

Read-outs that look alike come from different tables or passages of the source.

Assay [1] deals with T1, hVEGF-A (8-109) (human, UniProt P15692 214-315).
T1 sequence (looked up): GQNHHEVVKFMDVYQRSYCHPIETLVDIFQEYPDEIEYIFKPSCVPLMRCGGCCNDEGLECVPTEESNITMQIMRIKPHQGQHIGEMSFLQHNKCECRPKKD
Briefly: competition ELISA: VEGF-A (8-109) coated, constant KDR receptor, peptide titrated; blocked ligand: KDR. On the procedure:
(§1) Binding specificity of each peptide was established by competition ELISA. […] After blocking with block buffer (PBS with 0.5% BSA and 0.05% TWEEN®20) for 2 hours at room temperature, the receptor-Fc fusions or biotinylated receptors were serially diluted using assay buffer (PBS with 0.5% BSA and 0.05% TWEEN®20) and incubated for 1 hour at room temperature. […] Competition ELISA was conducted in an identical fashion as described above except after blocking, a mixture of serially diluted peptide containing a constant concentration of receptor-Fc fusion or biotinylated receptor (concentration of receptor was set to EC₆₀) was added and incubated for 1 hour. All recombinant human proteins and antibodies were purchased from R &D Systems (Minneapolis, Minn.).

The next assay deals with human VEGF-A 165 (human, UniProt P15692-4 27-191). Briefly: competition ELISA: VEGF-A 165 coated, constant KDR receptor, peptide titrated; blocked ligand: KDR. On the procedure: as §1
Sequence of human VEGF-A 165 (P15692 other isoform, or with tags, fused parts or gaps limits assumed): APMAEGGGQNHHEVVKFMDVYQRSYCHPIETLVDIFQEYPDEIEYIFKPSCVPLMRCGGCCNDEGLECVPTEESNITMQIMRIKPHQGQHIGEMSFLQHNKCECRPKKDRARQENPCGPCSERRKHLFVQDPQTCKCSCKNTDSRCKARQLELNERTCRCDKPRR
(An ELISA detects its analyte on a solid surface through an enzyme-linked reagent.)

A further assay concerns the target EGF (human, UniProt P01133 971-1023). As to the kind of experiment: competition ELISA: EGF coated, constant EGFR receptor, peptide titrated.
The target in assay [2] is T1, hVEGF-A (8-109). As to the kind of experiment: competition ELISA: VEGF-A (8-109) coated, constant Flt-1 receptor, peptide titrated; blocked ligand: Flt-1. On the procedure:
as §1

The target in assay [3] is T2, hVEGF-A (human, UniProt P15692-4 27-191, limits assumed).
T2 construct: also called human VEGF-A; WT
Briefly: SPR. On the technique in general: SPR reads the build-up and loss of mass on a sensor chip optically.

The next assay concerns the target T3, VEGF-C (human, UniProt P49767 103-227, limits assumed).
T3 sequence (looked up): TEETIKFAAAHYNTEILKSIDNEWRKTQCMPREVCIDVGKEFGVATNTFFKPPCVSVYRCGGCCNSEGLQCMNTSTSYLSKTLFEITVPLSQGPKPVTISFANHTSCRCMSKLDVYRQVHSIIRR
Briefly: competition ELISA: VEGF-C coated, constant Flt-4 receptor, peptide titrated.

The next assay deals with PDGF-ββ (human, UniProt P01127 82-190). As to the kind of experiment: competition ELISA: PDGF coated, constant PDGFR receptor, peptide titrated.
Sequence of PDGF-ββ (P01127 82-190): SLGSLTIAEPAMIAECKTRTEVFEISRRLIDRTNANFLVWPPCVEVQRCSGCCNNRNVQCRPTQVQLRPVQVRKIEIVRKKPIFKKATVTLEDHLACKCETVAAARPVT
Assay [4] addresses T1, hVEGF-A (8-109). Briefly: competition ELISA: VEGF-A (8-109) coated, constant KDR receptor, peptide titrated; blocked ligand: KDR. On the procedure:
as §1
The source holds these as a separate data set.

Assay [5] addresses T1, hVEGF-A (8-109). Briefly: spot phage ELISA. The method in brief:
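Phage clones from four selection rounds were grown overnight at 37 °C with M13-KO7 helper phage. Bound phage was detected with anti-M13-HRP and TMB, with binding to BSA alone run in parallel as background.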

A further assay deals with T4, PIGF-2 (human, UniProt P49763-3 19-170).
T4 construct: also called P1Gf-2; P1GF
T4 sequence (looked up): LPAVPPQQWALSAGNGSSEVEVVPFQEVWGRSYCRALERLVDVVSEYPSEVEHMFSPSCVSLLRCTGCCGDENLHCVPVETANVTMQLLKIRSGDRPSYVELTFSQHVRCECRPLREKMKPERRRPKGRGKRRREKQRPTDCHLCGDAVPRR
Briefly: competition ELISA: PIGF-2 coated, constant Flt-1 receptor, peptide titrated.

The target in the next assay is T5, hVEGF-A F17A/M81A (human, UniProt P15692-4 34-135, F17A; M81A).
T5 construct: positions probably counted on the mature protein
T5 sequence (looked up): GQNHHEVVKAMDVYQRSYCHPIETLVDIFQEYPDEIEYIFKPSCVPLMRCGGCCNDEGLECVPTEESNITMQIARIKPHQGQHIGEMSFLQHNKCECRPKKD
As to the kind of experiment: site-directed mutants, SPR; no numbers printed for this mutant.

For another assay, the target named is NGF (human, UniProt P01138 122-241, limits assumed). As to the kind of experiment: competition ELISA: NGF coated, constant NGFR receptor, peptide titrated.
Sequence of NGF (P01138 122-241 limits assumed): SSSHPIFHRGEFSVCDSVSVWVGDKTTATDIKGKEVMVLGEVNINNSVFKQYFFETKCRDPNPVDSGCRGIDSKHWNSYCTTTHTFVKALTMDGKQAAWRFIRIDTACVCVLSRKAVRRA
For another assay, the target named is T6, hVEGF-A Q89A (human, UniProt P15692-4 34-135, Q89A).
T6 construct: position probably counted on the mature protein
T6 sequence (looked up): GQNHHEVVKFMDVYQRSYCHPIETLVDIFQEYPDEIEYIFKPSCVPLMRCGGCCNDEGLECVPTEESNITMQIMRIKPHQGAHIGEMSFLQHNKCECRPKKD
Briefly: SPR. On the procedure:
(§2) Depending on the format of the assay either a streptavidin sensor (SA) or a dextran-coated (CM5) sensor was utilized as described below.
(§3) Reaction was then quenched by addition of 10 molar excess of Glycine pH 8.0 and the sample was buffer exchanged into PBS using an Amicon 0.5 mL 3000 MWCO ultra-centrifugal filters (EMD Millipore). The biotinylation state of the protein was verified by LC-MS analysis. Biotinylated VEGF-A was then captured on the surface until a resonance unit (RU) signal of about ˜400. For immobilization of VEGF-A on CM5 sensor, the surface was first activated with a mixture of N-ethyl-N′-(3-dimethylaminopropyl)carbodiimide hydrochloride and N-hydroxysuccinimide (EDC/NHS) according to the supplier instructions. VEGF-A was then diluted into coupling buffer (0.1 M Acetate Buffer, pH 5.0) and injected until the signal reached about ˜400 RU followed by a wash with 1 M ethanolamine pH 8.0 to quench remaining activated sites.

Assay [6] addresses T2, hVEGF-A. Briefly: SPR. On the procedure: as §2, §3
The source holds these as a separate data set.

For a further assay, the target named is T7, hVEGF-A K48A (human, UniProt P15692-4 34-135, K48A).
T7 construct: position probably counted on the mature protein
T7 sequence (looked up): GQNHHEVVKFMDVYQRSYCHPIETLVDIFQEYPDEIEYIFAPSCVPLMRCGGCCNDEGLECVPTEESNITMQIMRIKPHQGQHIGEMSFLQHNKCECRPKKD
As to the kind of experiment: SPR. On the procedure:
as §2, §3

Sequence of EGF (P01133 971-1023 limits assumed): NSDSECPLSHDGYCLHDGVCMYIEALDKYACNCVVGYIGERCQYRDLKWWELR

B1: VEGF_CKP9.54.90 (designed binder)
chain: GCNIMLPFWGCGRDFECLAGCVCQYYQSCG
One may read the Kd as the equilibrium constant for the complex coming apart. A high value points to weaker binding. B1: the “IC50 (read off the curve)” value was approximately 20 nM with hVEGF-A (8-109) [1], approximately 30 nM with human VEGF-A 165, approximately 70 nM with hVEGF-A (8-109) [2] and approximately 20 nM with hVEGF-A (8-109) [4]. Moreover, the binding result with EGF was “no binding (tested: 5 µM)”; in the assay with VEGF-C, “no binding (tested: 5 µM)”; in the assay with PDGF-ββ, “no binding (tested: 5 µM)”; in the assay with PIGF-2, “no binding (tested: 5 µM)”; with hVEGF-A F17A/M81A it was “binds”; in the assay with NGF, “no binding (tested: 5 µM)”. Moreover, the Kd with hVEGF-A [3] was 0.4 nM; with hVEGF-A Q89A, 8.8 nM; in the assay with hVEGF-A [6] it was 0.37 nM; with hVEGF-A K48A, 0.19 nM. In the assay with hVEGF-A (8-109) [5], this molecule showed an ELISA of 2.3. In the assay with hVEGF-A (8-109) [5], the “S/N vs BSA” value was 29.5.
